What was measured:
cathepsin B [1] = biological target: T1, cathepsin B (Homo sapiens, UniProt P07858); assay: Labeling with diagnostic inhibitor in cell extracts (gel-based, fluorescence scan): about 30 kDa cathepsin B band; set-up: endogenous in cells; host or cells: Jurkat T cells; HBL1 and other DLBCL cell lines
Procedure: (§1) Jurkat T cells were cultured in standard RPMI medium containing 10% FCS, 100 U/ml Penicillin/Streptomycin and 2 mM Glutamin. DNA transfection of 6 μg DNA in 8×10^6 Jurkat T cells was performed by electroporation in a GenePulser Xcell (BioRad) with a 220 Volt pulse. For siRNA experiments, Jurkat T cells were transfected with 100 nM siRNA and Atufect transfection reagent (Silence Therapeutics, Berlin). Jurkat T cells were stimulated either with 200 ng/ml PMA (phorbol 12-myristate 13-acetate) and 300 ng/ml Ionomycin (both Calbiochem) or CD3/CD28 antibody co-ligation (human CD3: 1 μg/ml; human CD28: 4 μg/ml; mouse IgG1: 2 μg/ml; mouse IgG2a: 2 μg/ml; BD Biosciences). DLBCL cell lines (HBL1, TMD8, OCI-Ly3, U2932, RIVA, BJAB, Su-DHL-4 and Su-DHL-6) were cultured in standard RPMI medium containing 20% FCS, 100 U/ml Penicillin/Streptomycin and 2 mM Glutamin. OCI-Ly10 cell line was cultured in IMDM containing 20% human serum, 100 U/ml Penicillin/Streptomycin, 2 U/ml heparine, 50 μM β-mercaptoethanol. Inhibitors 10 μM (z-VRPR-FMK, Mepazine, Thioridazine, CA-074Me) were added to the cells in media for 1 h, prior to stimulation and labeling with diagnostic MALT1 inhibitor.
(§2) Jurkat T cells (1-2×10^7), primary human PBMCs or primary human T cells (0.25 or 1×10^7) were lysed in 150 μl co-IP buffer without protease inhibitors. DLBCL (3×10^7) were lysed in 250 μl buffer. After centrifugation (14000 rpm, 10 min, 4° C.), 100 μl extract (DLBCL: 200 μl) was stained with probe 5 or probe 6 (3 μM end) for 50 min at 29° C., mixed with 4× loading dye and boiled.

MALT1 = biological target: T2, MALT1 (Homo sapiens, UniProt Q9UDY8); assay: MALT1 in vitro cleavage assay using fluorescent substrate; type: biochemical
T2 construct: GST
T2 sequence (Q9UDY8 1-824): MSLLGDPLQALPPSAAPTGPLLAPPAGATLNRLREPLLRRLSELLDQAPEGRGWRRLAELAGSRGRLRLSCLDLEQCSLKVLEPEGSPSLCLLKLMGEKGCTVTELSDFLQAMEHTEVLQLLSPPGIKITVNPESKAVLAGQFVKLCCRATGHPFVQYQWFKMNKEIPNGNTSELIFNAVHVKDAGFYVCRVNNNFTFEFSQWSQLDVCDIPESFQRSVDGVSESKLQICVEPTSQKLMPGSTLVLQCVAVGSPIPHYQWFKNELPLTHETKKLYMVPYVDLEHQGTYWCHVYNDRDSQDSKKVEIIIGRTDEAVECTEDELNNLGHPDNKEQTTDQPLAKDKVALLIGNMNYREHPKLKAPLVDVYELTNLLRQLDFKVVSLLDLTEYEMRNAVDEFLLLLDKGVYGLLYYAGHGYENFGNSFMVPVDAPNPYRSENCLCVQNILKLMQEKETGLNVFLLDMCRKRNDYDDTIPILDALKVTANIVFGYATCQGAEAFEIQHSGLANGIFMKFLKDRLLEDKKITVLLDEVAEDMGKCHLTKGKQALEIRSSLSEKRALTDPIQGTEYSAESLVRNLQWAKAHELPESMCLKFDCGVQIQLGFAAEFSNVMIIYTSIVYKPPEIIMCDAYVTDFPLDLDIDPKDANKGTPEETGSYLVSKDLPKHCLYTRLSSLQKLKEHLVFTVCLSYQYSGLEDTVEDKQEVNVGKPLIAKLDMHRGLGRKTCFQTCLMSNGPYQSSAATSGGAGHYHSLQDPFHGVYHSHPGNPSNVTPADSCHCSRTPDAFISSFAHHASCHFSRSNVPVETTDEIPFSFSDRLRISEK
Procedure: (§3) C) Impact of indicated compounds on MALT1, Caspase8 and cathepsin B was tested in in vitro cleavage assays using fluorescent substrates. Results and SD from three independent experiments are shown.
Preferably, MALT1 activity is determined in a MALT1 cleavage assay. […] The assay may be performed in cleavage buffer comprising for example 50 mM MES, 1 M sodium citrate pH 7, 150 mM NaCl, 10% sucrose, 0.1% chaps, 10 mM DTT. Catalytically active MALT1 cleaves the substrate and an increase of AMC fluorescence can be measured.

cathepsin B [2] = biological target: T1, cathepsin B; assay: Cathepsin B cleavage assay (zRR-AMC substrate); type: biochemical; set-up: purchased BioVision; conditions: 0.2 ng cathepsin B, 1 mM zRR-AMC, 2 h at 30° C.
Procedure: as §3
0.2 ng cathepsin B together with probe 5, z-VRPR-FMK (SEQ ID No. 6), mepazine or CA-074 was incubated with 1 mM zRR-AMC substrate for 2 h at 30° C. Assay was performed in 0.1 M sodium acetate pH 5.5, 10 mM DTT and 0.1 mM EDTA. Again, increase of AMC fluorescence is measured in a Synergy 2 Microplate Reader (Biotek).

active MALT1 [3] = biological target: T3, active MALT1 (Homo sapiens, UniProt Q9UDY8); assay: Probe 7-pulldown with streptavidin beads and western blot; type: cell-based; conditions: Jurkat T cells pretreated with 10 μM inhibitors, 0.1 μM probe 7
T3 construct: endogenous in cells; host or cells: Jurkat T cells, primary human PBMCs and T cells, DLBCL cell lines (HBL1, TMD8, OCI-Ly3, OCI-Ly10, U2932, RIVA, BJAB, Su-DHL-4, Su-DHL-6)
T3 sequence (Q9UDY8 1-824): T2 sequence (Q9UDY8 1-824)
Procedure: as §1
Untreated DLBCL (1-2×10^7) or Jurkat T cells (stimulated with PMA/Ionomycin or CD3/28 or left untreated; 1-2×10^7), were lysed in 500 μl co-IP buffer without protease inhibitors, centrifuged, incubated with probe 7 (concentration as depicted) for 1 h at RT then incubated with streptavidin beads for 2 h at 4° C. Precipitate was washed, analysed by SDS-PAGE and western blot.

active MALT1 [4] = biological target: T3, active MALT1; assay: Labeling with diagnostic inhibitor in cell extracts (gel-based, fluorescence scan): active MALT1 band
Procedure: as §1, §2

[5] = HBL1 cells, inhibitors 10 μM each

z-VRPR-FMK (Z N-terminal cap, FMK warhead)
effect of inhibitor on the about 30 kDa cathepsin B signal labeled by probe 6 (cathepsin B [1]; [5]): sensitive | effect of inhibitor pretreatment on the band below 34 kDa (cathepsin B) labeled by probe 5 (cathepsin B [1]; Jurkat T cells, 10 μM inhibitor, probe 5): reduced | inhibition of MALT1 protease activity in vitro (MALT1): inhibit MALT1 | inhibition of cathepsin B activity in vitro (cathepsin B [2]): abrogated cathepsin B activity even though slightly less efficient | effect of inhibitor on formation of MALT1-probe 7 complexes (active MALT1 [3]): blocked | effect of inhibitor on probe 6 labeling of active MALT1 (active MALT1 [4]; [5]): sensitivity | effect of inhibitor pretreatment on probe 5 labeling of active MALT1 (active MALT1 [4]; Jurkat T cells, 10 μM inhibitor before stimulation, probe 5): prevents binding of diagnostic MALT1-inhibitor

Reference: US10502741B2, “Means and methods for detecting activated MALT1” (Helmholtz Zentrum München Deutsches Forschungszentrum für …, priority 2014, dated 2019)
